The source of these data is patent US11433139B2, “Peptide vaccines against interleukin-31” (Zoetis Services LLC, priority 2018, dated 2022).

Data set [1] addresses T1, canine IL-31 (Canis lupus familiaris, UniProt A0A8I3S3D1).
T1 construct: made in house; host or cells: CHO cells (CHROMOS ACE system)
T1 sequence (A0A8I3S3D1 24-159): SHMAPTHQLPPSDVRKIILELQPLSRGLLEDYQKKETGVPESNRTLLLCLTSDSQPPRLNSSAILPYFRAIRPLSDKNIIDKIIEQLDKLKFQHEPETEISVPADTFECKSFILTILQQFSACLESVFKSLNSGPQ
Description: Inhibition of canine IL-31 induced pSTAT3 signaling in canine DH-82 and feline FCWF4 cells. Particulars: canine IL-31; canine and feline cell types, cell type of the values not specified. In kind it is cell-based. Here is the method: To identify candidates with inhibitory activity, antibodies were assessed for their ability to affect IL-31-mediated STAT3 phosphorylation in either a canine or feline cell-based assay. STAT3 phosphorylation was determined in canine DH-82 (ATCC® CRL-10389™) or feline FCWF4 macrophage-like cells (ATCC CRL-2787). DH82 and FCWF4 cells were primed with canine interferon gamma (R&D Systems, Minneapolis, Minn.) at 10 ng/mL for 24 hours or feline interferon gamma (R&D Systems, Minneapolis, Minn.) at 125 ng/mL for 96 hours, respectively, to increase receptor expression. Both cell types were serum starved for 2 hours prior to IL-31 and mAb treatment. Using two independent methods, all candidate mAbs were evaluated for their ability to inhibit either 1 μg/mL canine or 0.2 μg/mL feline IL-31 induced STAT3 phosphorylation. […] To ensure complex formation, a one hour co-incubation of mAb and IL-31 cytokine prior to cell stimulation was completed. IL-31 cell stimulation was carried out for five minutes. STAT3 phosphorylation was measured using AlphaLISA SureFire ULTRA™ technology (Perkin Elmer, Waltham, Mass.). In the case where antibody concentration and purity are unknown, hybridoma supernatants were qualitatively measured for their ability to inhibit STAT3 phosphorylation following a 1 hour co-incubation with […] IL-31. The potency of individual monoclonal antibodies defined by their ability to inhibit IL-31 mediated STAT3 phosphorylation in these assays was considered the key selection criteria for further advancement of select antibodies. The term potency refers to the IC50 value calculated from these assays and is the concentration of the antibody where signaling induced by IL-31 is reduced to one half its maximal value.

Data set [2] has as its system feline IL-31. The data set can be described thus: Inhibition of feline IL-31 induced pSTAT3 signaling in feline FCWF4 macrophage-like cells. The class given is cell-based. The following applies: 0.2 μg/mL feline IL-31, pSTAT3, FCWF4 cells (FIG. 3). The method in brief: (§1)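 DH-82 cells primed with canine IFN-γ 10 ng/mL for 24 h, FCWF4 with feline IFN-γ 125 ng/mL for 96 h, then serum-starved 2 h. mAb pre-incubated 1 h with 1 μg/mL canine or 0.2 μg/mL feline IL-31, cells stimulated 5 min; pSTAT3 by AlphaLISA SureFire, IC50 as half-maximal signalling reduction.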

Data set [3] has as its system feline IL-31. Description: Inhibition of feline IL-31 induced pSTAT3 signaling in canine DH-82 cells. The class given is cell-based. The following applies: feline IL-31, pSTAT3, canine DH82 cells (FIG. 3). An outline of the steps:
as §1
Target sequence in this assay (as listed by the source): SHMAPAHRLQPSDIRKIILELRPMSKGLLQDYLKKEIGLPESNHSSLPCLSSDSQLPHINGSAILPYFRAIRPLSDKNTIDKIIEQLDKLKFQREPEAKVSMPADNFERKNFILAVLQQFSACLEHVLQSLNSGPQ

Data set [4] deals with feline IL-31. Description: Affinity of anti-IL-31 antibodies by surface plasmon resonance (Biacore), feline IL-31 surface. The class given is binding. The following applies: IL-31 conjugated to the surface (FIG. 2). An outline of the steps: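 IL-31 amine-coupled (NHS/EDC) at 5 μg/mL directly onto the SPR chip, quenched with ethanolamine; candidate mAbs flowed over as analyte. KD from 1:1 model fits; values below 1×10^−11 M are under the instrument's lower quantitation limit.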
Target sequence in this assay (as listed by the source): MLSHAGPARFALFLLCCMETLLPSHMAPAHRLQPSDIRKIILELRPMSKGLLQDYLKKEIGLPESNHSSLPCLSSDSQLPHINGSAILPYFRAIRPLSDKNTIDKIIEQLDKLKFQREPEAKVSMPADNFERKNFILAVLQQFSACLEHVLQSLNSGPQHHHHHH

The test system of data set [5] is feline IL-31. The data set can be described thus: Cat pruritus challenge model, subcutaneous antibody then IL-31 challenge. In kind it is in vivo. Particulars: cats, 4 mg/kg subcutaneously day 0; 0.5 μg/kg i.v. IL-31 challenge days 7, 21, 28. Here is the method:
The efficacy of the fully felinized anti feline IL-31 mAb ZTS-361 was assessed for its ability to neutralize pruritic behavior in an IL-31 induced in vivo cat model. […] As shown in this graph, the variance of pruritic behavior scored for both T01 and T02 groups prior to IL-31 challenge varied little with the number of pruritic events observed between 0 and 10 within the 30 minute observation period. This study differed from the preliminary feline challenge model described above in section 1.13 in that on day zero cats were dosed with 4 mg/kg ZTS-361 subcutaneously without combination with feline IL-31 to generate a pre-bound complex. This represents a more rigorous assessment of efficacy as antibody ZTS-361 will be in circulation for seven days prior to the first IL-31 challenge requiring the antibody to have sufficient exposure to bind and neutralize circulating IL-31.
For this study, pruritic behavior was assessed on days 7, 21, and 28 for 1 hour following a 0.5 μg/kg intravenous challenge of the IL-31 protein.
Target sequence in this assay (as listed by the source): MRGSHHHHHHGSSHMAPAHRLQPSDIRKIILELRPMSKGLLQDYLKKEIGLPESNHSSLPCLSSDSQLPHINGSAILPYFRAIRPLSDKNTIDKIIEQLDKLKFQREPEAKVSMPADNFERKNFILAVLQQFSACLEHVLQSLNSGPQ

The nature of data set [6]: Pharmacokinetic profile of canine IL-31 in dogs. The class given is in vivo, dog. The following applies: subcutaneous dose of 1.75 μg/kg, within the first hour. The procedure:
A recent study was performed to determine serum IL-31 levels in cats with a presumptive diagnosis of allergic dermatitis (AD) from several different geographic regions in the USA. […] To understand the levels of canine IL-31 in a previous model development study, the pharmacokinetic profile of canine IL-31 was analyzed in dogs following administration of a subcutaneous dose of 1.75 μg/kg. […] Based on these findings it is reasonable to believe that an intravenous dose of 0.5 μg/kg feline IL-31 used in this feline model will result in a circulating amount that is far excessive to that observed in the naturally occurring disease state for dogs and cats.

The nature of data set [7]: Stability of cIL-31 following dialysis into PBS. In kind it is physicochemical. The source says: The Interleukin 31 protein varies in amino acid sequence conservation among homologous species (FIGS. 1A and 1B) but is believed to have common structural architecture with other members of the type I cytokine family (Boulay et al. 2003, Immunity. August; 19(2):159-632003; Dillon et al. 2004 Nat Immunol. July; 5(7):752-60). This up-down bundle topology is significant to the mode of receptor recognition shared by these cytokines (Dillon et al. supra, Cornelissen et al. 2012 Eur J Cell Biol. June-July; 91(6-7):552-66). With variation in IL-31 protein sequence identities between different species, it is not possible to predict if antibodies raised against one species will cross-react with others given different epitope propensities and local amino acid compositions. As a consequence, multiple forms of IL-31 protein were considered for this work representing multiple species and expression systems. The canine IL-31 protein (cIL-31) was produced to use as an immunogen and a reagent to test affinity and potency of antibody hits. […] Protein concentration was determined using a bicinchoninic assay (BCA assay) with Bovine Serum Albumin (BSA) as a standard (ThermoFisher Scientific, Inc., Rockford, Ill.). […]

B1: ZTS-361: felinized anti IL-31 15H05 mAb, FEL_15H05_VH1 with Feline_HC_AlleleA_1, FEL-15H05-VL1_FW2 light chain (antibody, V domains shown)
VH: QVLLVQSGAEVRTPGASVKIFCKASGYSFTSYTIHWLRQAPAQGLEWMGNINPTSGYTENNQRFKDRLTLTADTSTNTAYMELSSLRSADTAMYYCARWGFKYDGEWSFDVWGAGTTVTVSS
VL: EIQMTQSPSSLSASPGDRVTITCRASQGISIWLSWYQQKPGNIPKVLINKASNLHIGVPSRFSGSGSGTDFTLTISSLEPEDAATYYCLQSQTYPLTFGGGTKLEIK
modifications: feline constant regions joined; Felinized variable heavy mAb sequence, from Mus musculus and Felis catus; Felinized variable light mAb sequence, from Mus musculus and Felis catus
Take B1: the “IC50 against canine IL-31” value in data set [1] is reported as “proportionally higher”. Further, in data set [2], the “potency (IC50) against feline IL-31 in feline FCWF4 cells” value is “highly consistent with values derived from the chimeric and mouse form”. In addition, in data set [3], the “potency (IC50) against feline IL-31 in canine DH82 cells” value is “highly consistent with values derived from the chimeric and mouse form”. In addition, in data set [4], the “affinity (KD) to feline IL-31” value was “highly consistent with that of the mouse and chimeric form”. Moreover, in data set [5], the “reduction in pruritus compared to vehicle placebo control” value is reported as “significant reduction in pruritus”.

B2: canine IL-31: recombinant canine IL-31 protein (SEQ ID NO: 155) produced in CHO cells (protein, listed as Canis familiaris)
chain: MLSHTGPSRFALFLLCSMETLLSSHMAPTHQLPPSDVRKIILELQPLSRGLLEDYQKKETGVPESNRTLLLCLTSDSQPPRLNSSAILPYFRAIRPLSDKNIIDKIIEQLDKLKFQHEPETEISVPADTFECKSFILTILQQFSACLESVFKSLNSGPQ
For the molecule B2, the “peak plasma levels, maximum” value in data set [6] was “about 30 ng/ml”. In addition, in data set [7] (PBS, several days at 4° C.), the “stability, proteolysis” value is “no proteolysis was observed”. In data set [7] (following dialysis into PBS), the “stability, precipitation” value is reported as “No precipitation was observed”.
